Data published in publication PMC9722718, “Structural basis of sequence-specific RNA recognition by the antiviral factor APOBEC3G”.

Columns and labels:
[1] = target: rA3GR8 (Macaca mulatta (rhesus macaque), UniProt M1GSK9 1-138+=AEAG+147-383, internal_change); experiment: EMSA; EMSA: 10 nM 6-FAM RNA, 50 mM HEPES pH 7.5, 250 mM NaCl, 1 mM DTT, 0.4 U/ul RNase inhibitor, 10% glycerol, on ice 10 min, 8% native PAGE at 4 C; details: protein: recombinant; tags: 6xHis-SUMO removed by PreScission protease; label: 6-FAM; single strand
[2] = target: T1, rA3GR8/E259A (Macaca mulatta (rhesus macaque), UniProt M1GSK9 1-138+=AEAG+147-383, E259A;internal_change); experiment: X-ray crystallography; 1:1; EMSA: 10 nM 6-FAM RNA, 50 mM HEPES pH 7.5, 250 mM NaCl, 1 mM DTT, 0.4 U/ul RNase inhibitor, 10% glycerol, on ice 10 min, 8% native PAGE at 4 C; details: protein: recombinant; tags: 6xHis-SUMO removed by PreScission protease; single strand
[3] = target: GST-NCp7 (HIV-1, UniProt P04591 378-432); experiment: EMSA; best binder; EMSA: 10 nM 6-FAM RNA, 50 mM HEPES pH 7.5, 250 mM NaCl, 1 mM DTT, 0.4 U/ul RNase inhibitor, 10% glycerol, on ice 10 min, 8% native PAGE at 4 C; details: protein: recombinant; tags: N-terminal GST; label: 6-FAM; single strand
[4] = target: T1, rA3GR8/E259A; experiment: X-ray crystallography; 1.83 A; 1:1; EMSA: 10 nM 6-FAM RNA, 50 mM HEPES pH 7.5, 250 mM NaCl, 1 mM DTT, 0.4 U/ul RNase inhibitor, 10% glycerol, on ice 10 min, 8% native PAGE at 4 C; details: protein: recombinant; tags: 6xHis-SUMO removed by PreScission protease; single strand

Chain of rA3GR8 (M1GSK9 entry or part of it): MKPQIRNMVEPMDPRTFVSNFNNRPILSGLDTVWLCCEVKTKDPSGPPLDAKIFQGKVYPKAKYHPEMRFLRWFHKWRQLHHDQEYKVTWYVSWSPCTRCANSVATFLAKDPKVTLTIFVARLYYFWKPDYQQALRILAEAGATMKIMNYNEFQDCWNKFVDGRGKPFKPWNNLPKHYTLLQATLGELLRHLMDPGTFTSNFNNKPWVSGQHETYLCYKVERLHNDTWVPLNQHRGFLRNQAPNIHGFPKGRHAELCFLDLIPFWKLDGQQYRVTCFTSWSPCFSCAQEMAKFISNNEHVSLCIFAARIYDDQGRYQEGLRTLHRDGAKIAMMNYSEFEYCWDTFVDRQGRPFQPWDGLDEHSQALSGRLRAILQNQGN
T1 sequence (M1GSK9 entry or part of it E259A/| E259A E259A): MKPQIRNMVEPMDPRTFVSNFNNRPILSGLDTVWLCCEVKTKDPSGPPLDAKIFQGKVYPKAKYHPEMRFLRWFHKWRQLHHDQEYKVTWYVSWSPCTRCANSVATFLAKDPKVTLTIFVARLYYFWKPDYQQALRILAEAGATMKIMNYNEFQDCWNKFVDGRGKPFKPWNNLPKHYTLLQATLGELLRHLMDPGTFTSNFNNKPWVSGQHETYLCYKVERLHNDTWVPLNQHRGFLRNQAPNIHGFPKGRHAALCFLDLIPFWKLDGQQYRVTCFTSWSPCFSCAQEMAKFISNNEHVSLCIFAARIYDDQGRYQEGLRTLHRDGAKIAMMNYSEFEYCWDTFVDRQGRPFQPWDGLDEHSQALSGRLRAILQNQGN

B1: RNA3-AG (ssRNA)
RNA: UUUUAGUUUU
Kd [1]: 200 nM

B2: RNA3-GA (ssRNA)
RNA: UUUUGAUUUU
Kd [1]: 47 nM

B3: RNA3-AAxtal (ssRNA)
RNA: UUUUAAUUUU
binding result [2]: binds

B4: RNA3-GG (ssRNA)
RNA: UUUUGGUUUU
binding result [3]: binds

B5: RNA3-AA (ssRNA)
RNA: UUUUAAUUUU
Kd [1]: 10 nM

B6: RNA3-GAxtal (ssRNA)
RNA: UUUUGAUUUU
binding result [4]: binds
